Test results as given in patent publication US20120184713.

Assays:
[1] = system: T1, Peptide3, OPN-ASARM derivative with the three G-CK consensus Ser residues changed to Ala
T1 sequence: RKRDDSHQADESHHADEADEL

[2] = system: T2, Peptide1, OPN-ASARM peptide (human Osteopontin 115Asp to 132Leu with N-terminal Arg-Lys-Arg)
T2 sequence: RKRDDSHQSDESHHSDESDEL

[3] = system: T3, Peptide4, OPN-ASARM derivative with the other two Ser residues changed to Ala
T3 sequence: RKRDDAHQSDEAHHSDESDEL

Casein Kinase I (NEB)
in vitro kinase assay with peptide substrate [1]: had reduced, but similar levels of activity on both OPN-ASARM^3S-A and OPN-ASARM^2S-A
in vitro kinase assay with peptide substrate [2]: CKI also phosphorylated OPN-ASARM
in vitro kinase assay with peptide substrate [3]: had reduced, but similar levels of activity on both OPN-ASARM^3S-A and OPN-ASARM^2S-A
